This test has as its target acetylcholine receptor (Homo sapiens, UniProt P02708). As to the kind of experiment: SPR binding affinity (RU) of optimized 5mer/6mer/7mer peptides, Examples 6-7. Particulars: SPR, peptides tested at 10 μM; 6mer-1 Bottom sequence (Table 11). The method, boiled down: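 Binding response (RU) to the human acetylcholine receptor was measured by SPR. Each 5mer or 6mer library peptide was applied at 10 μM, with sequences drawn from top and bottom amino-acid combinations.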
(Surface plasmon resonance follows binding to a sensor surface in real time, without labels.)

Chain of acetylcholine receptor (P02708 21-457): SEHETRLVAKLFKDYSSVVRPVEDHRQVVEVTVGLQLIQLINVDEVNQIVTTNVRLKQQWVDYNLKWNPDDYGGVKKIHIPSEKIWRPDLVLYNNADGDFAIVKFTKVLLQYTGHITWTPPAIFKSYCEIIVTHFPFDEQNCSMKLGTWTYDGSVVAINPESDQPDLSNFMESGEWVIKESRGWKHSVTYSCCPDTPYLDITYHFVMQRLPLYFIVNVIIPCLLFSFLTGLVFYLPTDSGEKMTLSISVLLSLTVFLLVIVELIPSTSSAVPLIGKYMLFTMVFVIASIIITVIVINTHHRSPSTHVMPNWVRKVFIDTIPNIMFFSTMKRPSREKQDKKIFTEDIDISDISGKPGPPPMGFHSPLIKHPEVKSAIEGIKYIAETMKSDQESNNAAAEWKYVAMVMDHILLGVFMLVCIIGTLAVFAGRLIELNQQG

In the case of 6mer-1-824 (KKMNIK), the Binding affinity was determined as 12 Ru.
For 6mer-1-825 (RKEKWK), the Binding affinity turned out to be 30 Ru.
The same measure for 6mer-1-826 (KKAHMR): 31 Ru.
Under 6mer-1-827 (RKKKFR) stands 30 Ru; under 6mer-1-828 (RRPNMK), 26 Ru; under 6mer-1-829 (RRIHKK), 25 Ru.
Under 6mer-1-830 (KKTTMK) stands 33 Ru; under 6mer-1-831 (KKNPWK), 15 Ru; under 6mer-1-832 (RKYWGK), 12 Ru.
As for 6mer-1-833 (RRYKNR), the Binding affinity came to 19 Ru.
For 6mer-1-834 (KRNTIR), the Binding affinity was 17 Ru.
Under 6mer-1-835 (KRTADK) stands 26 Ru; under 6mer-1-836 (RRCMIK), 22 Ru; under 6mer-1-837 (KRDHAK), 19 Ru.
Consider 6mer-1-838 (KRNTWK), for which the Binding affinity is reported as 17 Ru.
The same measure for 6mer-1-839 (KRNWAK): 29 Ru.
On to 6mer-1-840 (RKICNK), for which the Binding affinity stood at 12 Ru.
The same measure for 6mer-1-841 (KKDAPR): 30 Ru.
The same measure for 6mer-1-842 (RRFANK): 11 Ru; for 6mer-1-843 (KKKTIK): 28 Ru.
Under 6mer-1-844 (KKPMNR) stands 28 Ru; under 6mer-1-845 (KKIDKK), 23 Ru.
For the substance 6mer-1-846 (RKDAEK), the Binding affinity was found to be 28 Ru.
Under 6mer-1-847 (KKYNHK) stands 20 Ru.
For the substance 6mer-1-848 (RKTMFK), the Binding affinity amounted to 19 Ru.
Turning to 6mer-1-849 (KKFNWK), the Binding affinity was 21 Ru.
For 6mer-1-850 (RRNPEK), the Binding affinity is given as 29 Ru.
As to 6mer-1-851 (RRYMEK), the Binding affinity worked out at 30 Ru.
Under 6mer-1-852 (KRASVK) stands 19 Ru; under 6mer-1-853 (KRCNGR), 30 Ru.
With 6mer-1-854 (KKEAVR), the Binding affinity was determined as 16 Ru.
Under 6mer-1-855 (RKCDVR) stands 15 Ru; under 6mer-1-856 (KRMWFK), 30 Ru; under 6mer-1-857 (KRPAFK), 14 Ru.
The same measure for 6mer-1-858 (KKKHKR): 27 Ru; for 6mer-1-859 (RKCMVK): 27 Ru; for 6mer-1-860 (RKHWWR): 22 Ru.
The same measure for 6mer-1-861 (KRINIR): 21 Ru; for 6mer-1-862 (KKHSEK): 32 Ru.
As for 6mer-1-863 (RRCTER), the Binding affinity came out at 27 Ru.
In the case of 6mer-1-864 (RRTWGR), the Binding affinity was 32 Ru.
Under 6mer-1-865 (KKMTAR) stands 21 Ru; under 6mer-1-866 (KRCHFR), 26 Ru; under 6mer-1-867 (KRIPMR), 25 Ru.
As to 6mer-1-868 (KKHHAR), the Binding affinity is reported as 14 Ru.
On to 6mer-1-869 (KRKDER), for which the Binding affinity is reported as 22 Ru.
The same measure for 6mer-1-870 (KRMSHR): 25 Ru; for 6mer-1-871 (KREWDR): 30 Ru; for 6mer-1-872 (KRPCHR): 23 Ru.
Turning to 6mer-1-873 (KRIWAR), the Binding affinity was 23 Ru.
The same measure for 6mer-1-874 (KRANHK): 18 Ru.
The same measure for 6mer-1-875 (KKTNGR): 33 Ru; for 6mer-1-876 (RKYWAR): 19 Ru.
For the substance 6mer-1-877 (KKPEWR), the Binding affinity is given as 19 Ru.
Under 6mer-1-878 (RRKDNR) stands 27 Ru; under 6mer-1-879 (RRYNNR), 27 Ru; under 6mer-1-880 (KRPMDK), 21 Ru.
Under 6mer-1-881 (KKHMER) stands 20 Ru; under 6mer-1-882 (KKPAMR), 25 Ru; under 6mer-1-883 (KKIDDK), 21 Ru.
The same measure for 6mer-1-884 (KRYTKR): 26 Ru; for 6mer-1-885 (RRKTPR): 17 Ru.
On to 6mer-1-886 (RKFSNK), for which the Binding affinity is 17 Ru.
The same measure for 6mer-1-887 (KRINHR): 30 Ru; for 6mer-1-888 (KKTANK): 33 Ru.
Under 6mer-1-889 (KRIMEK) stands 25 Ru; under 6mer-1-890 (RRTSNK), 18 Ru.
The same measure for 6mer-1-891 (RKMAFR): 13 Ru.
For the substance 6mer-1-892 (RKTEKR), the Binding affinity was 20 Ru.
The same measure for 6mer-1-893 (RRIPHR): 22 Ru; for 6mer-1-894 (RKCWWR): 18 Ru; for 6mer-1-895 (KKDSKK): 28 Ru.
Under 6mer-1-896 (KRDWIK) stands 11 Ru.
The same measure for 6mer-1-897 (RRPSIK): 24 Ru; for 6mer-1-898 (RKATKR): 31 Ru; for 6mer-1-899 (KRMKWK): 31 Ru.
Regarding 6mer-1-900 (RRDTGR), the Binding affinity stood at 24 Ru.
Take 6mer-1-901 (RKPNGR): the Binding affinity is reported as 35 Ru.
The same measure for 6mer-1-902 (RRDKMK): 39 Ru; for 6mer-1-903 (KKHKPR): 37 Ru.
The same measure for 6mer-1-904 (KKDTKR): 31 Ru; for 6mer-1-905 (RRICER): 36 Ru.
6mer-1-906 (KKINGK): the Binding affinity is 30 Ru.
Under 6mer-1-907 (RKPAWR) stands 42 Ru.
The same measure for 6mer-1-908 (KKFMVR): 37 Ru; for 6mer-1-909 (RKFCMR): 33 Ru; for 6mer-1-910 (KRPTIR): 42 Ru.
Under 6mer-1-911 (KRCAAR) stands 28 Ru.
Consider 6mer-1-912 (KKETFR), for which the Binding affinity turned out to be 33 Ru.
The same measure for 6mer-1-913 (KRFWWK): 27 Ru; for 6mer-1-914 (RRKCVR): 39 Ru.
Under 6mer-1-915 (RKDTWK) stands 27 Ru.
In the case of 6mer-1-916 (RRNAAK), the Binding affinity is reported as 33 Ru.
The same measure for 6mer-1-917 (KRADDK): 27 Ru; for 6mer-1-918 (RRESMR): 33 Ru.
In the case of 6mer-1-919 (RKDHIK), the Binding affinity was 26 Ru.
Under 6mer-1-920 (RRPAMR) stands 40 Ru; under 6mer-1-921 (RKFWHR), 36 Ru.
Under 6mer-1-922 (RRDWGR) stands 34 Ru; under 6mer-1-923 (RRASDR), 43 Ru; under 6mer-1-924 (RKFNWR), 29 Ru.
The same measure for 6mer-1-925 (KKAMHR): 42 Ru.
For the substance 6mer-1-926 (KRESDR), the Binding affinity is 40 Ru.
Under 6mer-1-927 (KRESHR) stands 37 Ru; under 6mer-1-928 (KRYCPK), 30 Ru.
The same measure for 6mer-1-929 (RRCDHK): 25 Ru; for 6mer-1-930 (KKESNK): 43 Ru.
In the case of 6mer-1-931 (KKNWPR), the Binding affinity was found to be 35 Ru.
In the case of 6mer-1-932 (KRFEFK), the Binding affinity came to 38 Ru.
Regarding 6mer-1-933 (RRPWNR), the Binding affinity was 28 Ru.
Under 6mer-1-934 (KRPPGK) stands 39 Ru; under 6mer-1-935 (RKKDIK), 40 Ru; under 6mer-1-936 (RKETDR), 36 Ru.
Under 6mer-1-937 (RKPTNR) stands 34 Ru; under 6mer-1-938 (KKIAWK), 28 Ru; under 6mer-1-939 (KRNDFK), 41 Ru.
The same measure for 6mer-1-940 (RKPEDR): 29 Ru.
Regarding 6mer-1-941 (RKTPKK), the Binding affinity was 29 Ru.
Under 6mer-1-942 (RRMMVR) stands 37 Ru; under 6mer-1-943 (KKEHDK), 43 Ru.
Regarding 6mer-1-944 (RKPAGK), the Binding affinity stood at 25 Ru.
Under 6mer-1-945 (RKTSIK) stands 31 Ru.
Under 6mer-1-946 (RRCEPR) stands 31 Ru; under 6mer-1-947 (KRTKGR), 31 Ru; under 6mer-1-948 (RKFTVR), 24 Ru.
As for 6mer-1-949 (RKEMPR), the Binding affinity turned out to be 37 Ru.
Under 6mer-1-950 (RKEDKR) stands 29 Ru.
Under 6mer-1-951 (RKAMDK) stands 29 Ru; under 6mer-1-952 (KRHDKK), 28 Ru.
In the case of 6mer-1-953 (KRTNGK), the Binding affinity is 26 Ru.
The same measure for 6mer-1-954 (KKAKGR): 41 Ru; for 6mer-1-955 (RKECFK): 23 Ru.
The same measure for 6mer-1-956 (KRKSNK): 34 Ru.
Under 6mer-1-957 (KKPPDK) stands 43 Ru.

These data come from US20250011363A1, “OPTIMIZED SHORTENED PEPTIDE THAT BINDS TO ACETYLCHOLINE RECEPTOR, AND USE THEREOF” (SKINMED CO., LTD., priority 2021, published 2025).
